Laboratory results as given in FireProtDB (doi:10.1021/bi951726o).

B1: Tryptophan synthase alpha chain, P0A877 (parent)
chain: MERYESLFAQLKERKEGAFVPFVTLGDPGIEQSLKIIDTLIEAGADALELGIPFSDPLADGPTIQNATLRAFAAGVTPAQCFEMLALIRQKHPTIPIGLLMYANLVFNKGIDEFYAQCEKVGVDSVLVADVPVEESAPFRQAALRHNVAPIFICPPNADDDLLRQIASYGRGYTYLLSRAGVTGAENRAALPLNHLVAKLKEYNAAPPLQGFGISAPDQVKAAIDAGAAGAISGSAIVKIIEQHINEPEKMLAALKVFVQPMKAATRS

Variants of: B1
Conditions: Escherichia coli (strain K12), pH 7.8, Urea, NMR, Potassium phosphate 58 mM, reversible: yes, structure 1WQ5, whole UniProt chain shown

Variant	denaturant midpoint (higher = more stable) (25 °C) [M]	unfolding free energy (25 °C) [kcal/mol]	denaturant midpoint (higher = more stable) (5 °C) [M]	unfolding free energy (5 °C) [kcal/mol]
L100A	5.2	4.7		
P96A	8.6	4.9		
H244A			4.8	4
P93A H244A	5.4	3.4		
I95A	6.2	7.9		
Y102A	5	5.4		
